The target in assay [1] is FcγRIIIa(V158) (Sino Biological Inc, 10389-H08C1) (UniProt P08637). The experiment in a line: Binding ELISA: FcγRIIIa captured on anti-His coated plate; IgG pre-complexed with goat F(ab')2 anti-human-κ (1:2 w/w); HRP anti-human IgG F(ab')2 detection. (In general: An ELISA detects its analyte on a solid surface through an enzyme-linked reagent.)
Assay [2] has the same target. Description: Binding ELISA on FcγRIIIa(V158); relative to MIL62 as 100%.

FcγRIIIa(V158) (Sino Biological Inc, 10389-H08C1), sequence (P08637 17-208 F176V): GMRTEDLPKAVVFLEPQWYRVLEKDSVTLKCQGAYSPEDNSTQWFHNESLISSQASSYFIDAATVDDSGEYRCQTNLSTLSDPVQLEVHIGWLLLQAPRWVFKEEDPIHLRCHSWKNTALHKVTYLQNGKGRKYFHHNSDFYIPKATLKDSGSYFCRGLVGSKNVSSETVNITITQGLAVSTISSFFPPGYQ

In the case of RITUXAN (rituximab) (antibody), the EC50 (in general, the concentration at which the effect is half-maximal) in assay [1] turned out to be 0.194 mg/L. The Relative Bioactivity (%) in assay [2] is 26.8%.

Values taken from US20190177423A1.
